Experimental findings from patent publication US20140378659A1 are described below.

The experiment concerns the target human oxidized LDL (copper-oxidized low-density lipoprotein from plasma of a healthy individual) (human) (UniProt P04114). Kind of experiment: cell-based or functional assay.

B1: Human-derived Del-1 (developmental endothelial locus-1), recombinant protein having a His tag added to the C-terminus (protein, not shown: small tags and cut ends)
chain: DICDPNPCENGGICLPGLADGSFSCECPDGFTDPNCSSVVEVASDEEEPTSAGPCTPNPCHNGGTCEISEAYRGDTFIGYVCKCPRGFNGIHCQHNINECEVEPCKNGGICTDLVANYSCECPGEFMGRNCQYKCSGPLGIEGGIISNQQITASSTHRALFGLQKWYPYYARLNKKGLINAWTAAENDRWPWIQINLQRKMRVTGVITQGAKRIGSPEYIKSYKIAYSNDGKTWAMYKVKGTNEDMVFRGNIDNNTPYANSFTPPIKAQYVRLYPQVCRRHCTLRMELLGCELSGCSEPLGMKSGHIQDYQITASSIFRTLNMDMFTWEPRKARLDKQGKVNAWTSGHNDQSQWLQVDLLVPTKVTGIITQGAKDFGHVQFVGSYKLAYSNDGEHWTVYQDEKQRKDKVFQGNFDNDTHRKNVIDPPIYARHIRILPWSWYGRITLRSELLGCTEEE
For the molecule B1, the uptake of DiI-labeled oxidized LDL into LOX-1-expressing cells (fluorescence intensity) is greater than 90%.
